Source: the supplement of paper PMC5998384

Experiments:
[1] = test system: HeLa Kyoto; test: solubility change mitosis vs G1/S (difference of NP-40 vs SDS log2 ratios) (log2 ratio difference); higher = more soluble in mitosis
[2] = test system: HeLa Kyoto; test: melting temperature (median over replicates), in situ; higher = more thermally stable
[3] = test system: HeLa Kyoto; test: thermal stability score vs G1/S (z-score of summed log2 fold changes over temperatures); higher = more thermally stable than in G1/S
[4] = test system: HeLa Kyoto; test: solubility in G1/S (NP-40 vs SDS abundance) (log2 ratio); higher = more soluble; conditions: cell cycle stage: G1/S
[5] = cell cycle stage: early G1 (4.5 h after nocodazole release)
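Throughout, for melting temperature (median over replicates), in situ: HeLa Kyoto cells synchronized by double thymidine or nocodazole block, proteins quantified by TMT10plex mass spectrometry, three independent biological replicates.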
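Throughout, for solubility change mitosis vs G1/S (difference of NP-40 vs SDS log2 ratios): synchronized HeLa Kyoto cells (double thymidine block for G1/S, nocodazole release for mitosis), protein amounts in NP-40 versus SDS lysates quantified by mass spectrometry, three biological replicates.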
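Throughout, for solubility in G1/S (NP-40 vs SDS abundance): HeLa Kyoto cells arrested at G1/S by double thymidine block, proteins quantified by TMT10plex mass spectrometry in mild NP-40 versus SDS extracts, three biological replicates.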
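Throughout, for thermal stability score vs G1/S (z-score of summed log2 fold changes over temperatures): synchronized HeLa Kyoto cells, proteins quantified by TMT10plex mass spectrometry, three biological replicates, mitosis taken 0.5 h after nocodazole release, G1/S directly after double thymidine block.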

| Substance | solubility change mitosis (log2) [1] | melting temperature ([2]; cell cycle stage: G1/S) | melting temperature ([2]; cell cycle stage: mitosis) | thermal stability score [3, 5] | thermal stability score ([3]; cell cycle stage: mitosis) | solubility in G1/S (log2) [4] |
| --- | --- | --- | --- | --- | --- | --- |
| MAGPGWGPPRLDGFILTERLGSGTYATVYKAYAKKDTREVVAIKCVAKKSLNKASVENLLTEIEILKGIRHPHIVQLKDFQWDSDNIYLIMEFCAGGDLSRFIHTRRILPEKVARVFMQQLASALQFLHERNISHLDLKPQNILLSSLEKPHLKLADFGFAQHMSPWDEKHVLRGSPLYMAPEMVCQRQYDARVDLWSMGVILYEALFGQPPFASRSFSELEEKIRSNRVIELPLRPLLSRDCRDLLQRLLERDPSRRISFQDFFAHPWVDLEHMPSGESLGRATALVVQAVKKDQEGDSAAALSLYCKALDFFVPALHYEVDAQRKEAIKAKVGQYVSRAEELKAIVSSSNQALLRQGTSARDLLREMARDKPRLLAALEVASAAMAKEEAAGGEQDALDLYQHSLGELLLLLAAEPPGRRRELLHTEVQNLMARAEYLKEQVKMRESRWEADTLDKEGLSESVRSSCTLQ [ULK3] | -0.125 | 49.9 °C | 49.6 °C | -0.375 | -0.212 | 0.0298 |
| MAAVSVYAPPVGGFSFDNCRRNAVLEADFAKRGYKLPKVRKTGTTIAGVVYKDGIVLGADTRATEGMVVADKNCSKIHFISPNIYCCGAGTAADTDMTTQLISSNLELHSLSTGRLPRVVTANRMLKQMLFRYQGYIGAALVLGGVDVTGPHLYSIYPHGSTDKLPYVTMGSGSLAAMAVFEDKFRPDMEEEEAKNLVSEAIAAGIFNDLGSGSNIDLCVISKNKLDFLRPYTVPNKKGTRLGRYRCEKGTTAVLTEKITPLEIEVLEETVQTMDTS [PSMB7] | -0.192 | 60.7 °C | 64.5 °C | -1.21 | -2.39 | 0.376 |
| UBR1 | -0.26 | 48.6 °C | 50.3 °C | 0.878 | 1.16 | -0.252 |
| MPSLLVLTFSPCVLLGWALLAGGTGGGGVGGGGGGAGIGGGRQEREALPPQKIEVLVLLPQDDSYLFSLTRVRPAIEYALRSVEGNGTGRRLLPPGTRFQVAYEDSDCGNRALFSLVDRVAAARGAKPDLILGPVCEYAAAPVARLASHWDLPMLSAGALAAGFQHKDSEYSHLTRVAPAYAKMGEMMLALFRHHHWSRAALVYSDDKLERNCYFTLEGVHEVFQEEGLHTSIYSFDETKDLDLEDIVRNIQASERVVIMCASSDTIRSIMLVAHRHGMTSGDYAFFNIELFNSSSYGDGSWKRGDKHDFEAKQAYSSLQTVTLLRTVKPEFEKFSMEVKSSVEKQGLNMEDYVNMFVEGFHDAILLYVLALHEVLRAGYSKKDGGKIIQQTWNRTFEGIAGQVSIDANGDRYGDFSVIAMTDVEAGTQEVIGDYFGKEGRFEMRPNVKYPWGPLKLRIDENRIVEHTNSSPCKSSGGLEESAVTGIVVGALLGAGLLMAFYFFRKKYRITIERRTQQEESNLGKHRELREDSIRSHFSVA [NPR3] | -0.0686 | 53.9 °C | 54.4 °C | -4.69 | -4.35 | 0.0598 |
